Where two headings read alike, the source gives them in different places. Bridge positions count the residues as written; N and C are the ends. Square brackets hold non-standard residues; d marks the D form. Primed or numbered codes have the meaning given here. Ends that are not written are not given here. * marks the point of attachment. O‑Bzl(CF3)2 = C-terminal bis(trifluoromethyl)benzyl ester; NH(3,5-(CF3)2-benzyl) = FC(F)(F)c1cc(CN*)cc(C(F)(F)F)c1; OBzl(3,5-(CF3)2) = FC(F)(F)c1cc(CO*)cc(C(F)(F)F)c1; Glc″ = glucosyl on the serine side-chain oxygen; Dmt = Cc1cc(O)cc(C)c1C[C@H](N)C(=O)O; Nle = CCCC[C@H](N)C(=O)O; NHBn = c1ccc(CN*)cc1
Assays:
human δ opioid receptor [1] = biological target: T1, human δ opioid receptor (human, UniProt P41143 1-372); assay: cell-based or functional assay
T1 sequence (P41143 whole entry, stated change not applied): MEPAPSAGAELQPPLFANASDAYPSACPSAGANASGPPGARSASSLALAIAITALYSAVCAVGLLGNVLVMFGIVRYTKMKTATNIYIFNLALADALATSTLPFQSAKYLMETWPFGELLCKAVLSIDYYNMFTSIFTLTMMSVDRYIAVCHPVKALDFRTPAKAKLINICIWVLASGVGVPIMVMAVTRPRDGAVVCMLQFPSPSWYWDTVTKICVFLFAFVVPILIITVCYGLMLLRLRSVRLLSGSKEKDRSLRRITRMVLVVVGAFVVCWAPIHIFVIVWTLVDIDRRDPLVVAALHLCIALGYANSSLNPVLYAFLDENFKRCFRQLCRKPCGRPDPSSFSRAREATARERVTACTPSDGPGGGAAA

rat µ opioid receptor [2] = biological target: T2, rat µ opioid receptor (rat, UniProt P33535 1-398); assay: cell-based or functional assay
T2 sequence (P33535 whole entry): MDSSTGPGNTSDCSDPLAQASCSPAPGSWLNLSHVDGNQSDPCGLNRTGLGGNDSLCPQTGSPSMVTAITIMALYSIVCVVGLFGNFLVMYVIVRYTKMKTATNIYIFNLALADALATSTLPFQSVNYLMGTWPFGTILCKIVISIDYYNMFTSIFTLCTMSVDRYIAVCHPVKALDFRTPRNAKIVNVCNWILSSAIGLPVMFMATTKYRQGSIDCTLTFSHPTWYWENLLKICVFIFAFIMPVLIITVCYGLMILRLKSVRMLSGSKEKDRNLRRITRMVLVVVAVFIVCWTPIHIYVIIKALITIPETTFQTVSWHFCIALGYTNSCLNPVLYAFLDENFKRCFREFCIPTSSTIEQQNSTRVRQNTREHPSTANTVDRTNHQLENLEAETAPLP

[3] = biological target: µ opioid receptor of the guinea pig isolated ileum (guinea pig); assay: cell-based or functional assay
guinea pig NK1 receptor [4] = biological target: guinea pig NK1 receptor (guinea pig, UniProt P30547 1-407); assay: cell-based or functional assay
Target sequence in this assay (P30547 whole entry): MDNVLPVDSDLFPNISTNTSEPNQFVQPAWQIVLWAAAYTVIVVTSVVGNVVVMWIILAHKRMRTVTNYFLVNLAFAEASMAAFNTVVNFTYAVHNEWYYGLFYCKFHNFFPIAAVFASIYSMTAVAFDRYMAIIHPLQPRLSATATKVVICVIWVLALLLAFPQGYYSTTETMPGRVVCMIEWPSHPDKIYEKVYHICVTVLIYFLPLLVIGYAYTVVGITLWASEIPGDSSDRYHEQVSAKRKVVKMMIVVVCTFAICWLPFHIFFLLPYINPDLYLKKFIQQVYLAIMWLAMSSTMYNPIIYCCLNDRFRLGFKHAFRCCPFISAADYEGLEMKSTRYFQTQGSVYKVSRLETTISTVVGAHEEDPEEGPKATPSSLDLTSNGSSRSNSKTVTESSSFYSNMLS

human δ opioid receptor [5] = biological target: T1, human δ opioid receptor; assay: ratio of Ki at rMOR to Ki at hDOR
rat µ opioid receptor [6] = biological target: T2, rat µ opioid receptor; assay: competition vs [3H]DAMGO, membranes of rMOR-transfected HN9.10 cells
human δ opioid receptor [7] = biological target: T1, human δ opioid receptor; assay: competition vs [3H]DPDPE, membranes of hDOR-transfected HN9.10 cells
rat NK1 receptor [8] = biological target: T3, rat NK1 receptor (rat, UniProt P14600 1-407); assay: competition vs [3H]substance P, membranes of rNK1-transfected CHO cells
T3 construct: whole, on cells; Assayed as membrane preparations of transfected CHO cells; also called rNK1; rNK-1
T3 sequence (P14600 whole entry): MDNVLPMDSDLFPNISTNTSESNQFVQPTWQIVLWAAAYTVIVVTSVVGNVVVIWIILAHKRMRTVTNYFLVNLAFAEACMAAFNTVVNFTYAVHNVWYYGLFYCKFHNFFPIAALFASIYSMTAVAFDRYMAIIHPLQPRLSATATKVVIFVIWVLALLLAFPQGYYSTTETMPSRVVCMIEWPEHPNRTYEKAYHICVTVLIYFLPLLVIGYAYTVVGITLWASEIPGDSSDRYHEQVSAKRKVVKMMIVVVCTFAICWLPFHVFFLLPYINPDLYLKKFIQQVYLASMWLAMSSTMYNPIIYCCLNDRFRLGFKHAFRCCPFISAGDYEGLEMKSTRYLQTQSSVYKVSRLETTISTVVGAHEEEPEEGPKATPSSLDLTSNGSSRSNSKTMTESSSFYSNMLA

[9] = biological target: T4, µ opioid receptor of the guinea pig isolated ileum (guinea pig, UniProt P97266 1-98); assay: cell-based or functional assay
T4 sequence (P97266 whole entry): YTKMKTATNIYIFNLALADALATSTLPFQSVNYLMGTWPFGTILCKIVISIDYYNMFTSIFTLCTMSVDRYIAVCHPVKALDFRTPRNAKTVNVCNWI

guinea pig NK1 receptor [10] = biological target: T5, guinea pig NK1 receptor (guinea pig, UniProt P30547 1-407); assay: cell-based or functional assay; remark: listed apart in the source
T5 sequence (P30547 whole entry): as the sequence (P30547 whole entry) above

human δ opioid receptor [11] = biological target: T6, human δ opioid receptor (human, UniProt P41143 1-372); assay: competition vs [3H]DPDPE, hDOR cell membranes
T6 construct: whole, on cells; membrane preparations of the transfected cells were used; also called hDOR; DOR
T6 sequence (P41143 whole entry, stated change not applied): as the sequence (P41143 whole entry, stated change not applied) above

human NK1 receptor [12] = biological target: T7, human NK1 receptor (human, UniProt P25103 1-407); assay: competition vs [3H]Substance P, hNK1 CHO cell membranes
T7 construct: whole, on cells; membrane preparations of the transfected cells were used; also called hNK1; human neurokinin-1 receptor

rat NK1 receptor [13] = biological target: T8, rat NK1 receptor (rat, UniProt P14600 1-407); assay: competition vs [3H]Substance P, rNK1 CHO cell membranes
T8 construct: whole, on cells; membrane preparations of the transfected cells were used; also called rNK1; rNK-1
T8 sequence (P14600 whole entry): as the sequence (P14600 whole entry) above

human δ opioid receptor [14] = biological target: T6, human δ opioid receptor; assay: cell-based or functional assay; remark: listed apart in the source
rat µ opioid receptor [15] = biological target: T9, rat µ opioid receptor (rat, UniProt P33535 1-398); assay: cell-based or functional assay; remark: listed apart in the source
T9 sequence (P33535 whole entry): as the sequence (P33535 whole entry) above

[16] = biological target: T4, µ opioid receptor of the guinea pig …; assay: cell-based or functional assay; remark: listed apart in the source
guinea pig NK1 receptor [17] = biological target: T5, guinea pig NK1 receptor; assay: cell-based or functional assay; remark: listed apart in the source
rat µ opioid receptor [18] = biological target: T9, rat µ opioid receptor; assay: competition vs [3H]DAMGO, rMOR cell membranes
human NK1 receptor [19] = biological target: T7, human NK1 receptor; assay: competition vs [3H]Substance P, hNK1 CHO cell membranes; remark: listed apart in the source
human δ opioid receptor [20] = biological target: T6, human δ opioid receptor; assay: cell-based or functional assay; remark: listed apart in the source
[21] = biological target: T4, µ opioid receptor of the guinea pig …; assay: cell-based or functional assay; remark: listed apart in the source
guinea pig NK1 receptor [22] = biological target: T5, guinea pig NK1 receptor; assay: cell-based or functional assay; remark: listed apart in the source
rat µ opioid receptor [23] = biological target: T9, rat µ opioid receptor; assay: competition vs [3H]DAMGO, rMOR cell membranes; remark: listed apart in the source
human δ opioid receptor [24] = biological target: T6, human δ opioid receptor; assay: competition vs [3H]DPDPE, hDOR cell membranes; remark: listed apart in the source
human NK1 receptor [25] = biological target: T7, human NK1 receptor; assay: competition vs [3H]Substance P, hNK1 CHO cell membranes; remark: listed apart in the source
rat NK1 receptor [26] = biological target: T8, rat NK1 receptor; assay: competition vs [3H]Substance P, rNK1 CHO cell membranes; remark: listed apart in the source
human δ opioid receptor [27] = biological target: T1, human δ opioid receptor; assay: cell-based or functional assay; remark: listed apart in the source
rat µ opioid receptor [28] = biological target: T2, rat µ opioid receptor; assay: cell-based or functional assay; remark: listed apart in the source
human δ opioid receptor [29] = biological target: T1, human δ opioid receptor; assay: competition vs [3H]DPDPE, membranes of hDOR-transfected HN9.10 cells; remark: listed apart in the source
rat NK1 receptor [30] = biological target: T3, rat NK1 receptor; assay: competition vs [3H]substance P, membranes of rNK1-transfected CHO cells; remark: listed apart in the source
rat µ opioid receptor [31] = biological target: T9, rat µ opioid receptor; assay: cell-based or functional assay; remark: listed apart in the source
[32] = biological target: T4, µ opioid receptor of the guinea pig …; assay: cell-based or functional assay; remark: listed apart in the source
[33] = biological target: µ opioid receptor of the guinea pig isolated ileum (guinea pig, UniProt P97266 1-98); assay: cell-based or functional assay; remark: listed apart in the source
Target sequence in this assay (P97266 whole entry): as the sequence (P97266 whole entry) above

T7 sequence (P25103 whole entry): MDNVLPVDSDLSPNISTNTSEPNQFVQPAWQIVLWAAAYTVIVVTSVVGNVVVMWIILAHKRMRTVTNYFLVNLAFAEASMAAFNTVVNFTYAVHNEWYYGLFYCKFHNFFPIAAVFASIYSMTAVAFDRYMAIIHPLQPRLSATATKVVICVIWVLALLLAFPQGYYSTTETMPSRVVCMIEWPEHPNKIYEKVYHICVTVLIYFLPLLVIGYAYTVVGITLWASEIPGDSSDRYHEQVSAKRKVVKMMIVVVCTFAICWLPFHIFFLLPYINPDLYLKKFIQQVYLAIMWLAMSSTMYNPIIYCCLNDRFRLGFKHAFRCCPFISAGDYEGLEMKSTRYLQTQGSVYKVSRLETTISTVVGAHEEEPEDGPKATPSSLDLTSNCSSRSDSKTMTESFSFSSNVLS

## H-Y[dA]GFGPLW-{OBzl(3,5-(CF3)2)} (also: TFA salt, TFA salt; also called TY006) [H-Tyr-D-Ala-Gly-Phe-Gly-Pro-Leu-Trp-O-3,5-Bzl(CF3)2]
Human δ opioid receptor [1]
  [35S]GTP-γ-S binding EC50: 50.2 nM
  [35S]GTP-γ-S binding Emax: 35%
  [35S]GTP-γ-S binding LogEC50: -7.3
Rat µ opioid receptor [2]
  [35S]GTP-γ-S binding EC50: 41.7 nM
  [35S]GTP-γ-S binding Emax: 39%
  [35S]GTP-γ-S binding LogEC50: -7.38
[3]
  GPI (µ) opioid agonist IC50: 384 nM
Guinea pig NK1 receptor [4]
  Substance P GPI agonist (A50), contraction relative to KCl: 0 % at 1 µM
  Substance P GPI antagonist Ke: 5.4 nM
Human δ opioid receptor [5]
  Ki(µ)/Ki(δ): 0.75
Rat µ opioid receptor [6]
  Ki: 27 nM
  LogIC50: -7.24
Human δ opioid receptor [7]
  Ki: 36.1 nM
  LogIC50: -7.11
Rat NK1 receptor [8]
  IC50: 15.6 nM
  LogIC50: -7.83

## [Dmt][dA]GFMPLW-{OBzl(3,5-(CF3)2)} (also called TY033) [DmtDAlaGlyPheMetProLeuTrpOBn(CF3)2]
[9]
  GPI/LMMP IC50: 100 nM
Guinea pig NK1 receptor [10]
  GPI/LMMP Substance P antagonist Ke: 24.5 nM
Human δ opioid receptor [11]
  Ki: 0.22 nM
Human NK1 receptor [12]
  Ki: 1.2 nM
Rat NK1 receptor [13]
  Ki: 0.96 nM

## Y[dA]GF[Nle]S(Glc″)LW-{NH(3,5-(CF3)2-benzyl)} (also called TY044) [TyrDAlaGlyPheNleSer(OGlu)LeuTrpNHBn(CF3)2]
Human δ opioid receptor [14]
  GTP binding Emax: 162%
Rat µ opioid receptor [15]
  GTP binding EC50: 380 nM
  GTP binding Emax: 85%
[16]
  GPI/LMMP IC50: 249 nM
Guinea pig NK1 receptor [17]
  GPI/LMMP SP antagonist Ke: 18.4 nM
Rat µ opioid receptor [18]
  Ki: 3370 nM
Human NK1 receptor [19]
  Ki: 1.3 nM

B1: Tyr[DCysGlyPheNleProCys]TrpNHBn(CF3)2 (peptide)
peptide: Y[dC]GF[Nle]PCW-{NH(3,5-(CF3)2-benzyl)}
modifications: disulfide 2-7
notes: cyclic; also called TY035; [D-Cys2, Cys7]TY027
Human δ opioid receptor [20]
  [35S]GTPγS binding EC50: 0.02 nM
  [35S]GTPγS binding Emax: 11%
  [35S]GTPγS binding LogEC50: -10.8
[21]
  GPI (µ) IC50: 1000 nM
Guinea pig NK1 receptor [22]
  GPI Substance P antagonist Ke: 2.2 nM
Rat µ opioid receptor [23]
  Ki: 79 nM
  LogIC50: -6.8
Human δ opioid receptor [24]
  Ki: 1.3 nM
  LogIC50: -8.6
Human NK1 receptor [25]
  Ki: 0.1 nM
  LogIC50: -9.7
Rat NK1 receptor [26]
  LogIC50: -7

## H-Y[dA]GFMPLW-NHBn (also: TFA salt, TFA salt; also called TY025) [H-Tyr-D-Ala-Gly-Phe-Met-Pro-Leu-Trp-NH-Bzl]
Human δ opioid receptor [27]
  [35S]GTPγS binding EC50: 2.6 nM
  [35S]GTPγS binding LogEC50: -8.6
Rat µ opioid receptor [28]
  [35S]GTPγS binding Emax: 47%
Human δ opioid receptor [29]
  Ki: 0.44 nM
  LogIC50: -9.1
Rat NK1 receptor [30]
  Ki: 700 nM
  LogIC50: -5.6

B2: Tyr[DCysGlyPheDCys]ProLeuTrpNHBn(CF3)2 (peptide)
peptide: Y[dC]GF[dC]PLW-{NH(3,5-(CF3)2-benzyl)}
modifications: disulfide 2-5
notes: cyclic; also called TY037; [D-Cys2, D-Cys5]TY027
Human δ opioid receptor [20]
  [35S]GTPγS binding EC50: 14 nM
  [35S]GTPγS binding Emax: 22%
  [35S]GTPγS binding LogEC50: -7.9
Rat µ opioid receptor [31]
  [35S]GTPγS binding EC50: 53 nM
  [35S]GTPγS binding Emax: 12%
  [35S]GTPγS binding LogEC50: -7.3
[21]
  GPI (µ) IC50: 280 nM
Guinea pig NK1 receptor [22]
  GPI Substance P antagonist Ke: 4.7 nM
Rat µ opioid receptor [23]
  Ki: 52 nM
  LogIC50: -6.9
Human δ opioid receptor [24]
  Ki: 7.8 nM
  LogIC50: -7.8
Rat NK1 receptor [26]
  LogIC50: -6.9

## Y[dA]GFMPLW-{NH(3,5-(CF3)2-benzyl)} (also called TY027) [TyrDAlaGlyPheMetProLeuTrpNHBn(CF3)2]
[32]
  GPI (µ) IC50: 490 nM
Human δ opioid receptor [20]
  [35S]GTPγS binding EC50: 8.6 nM
  [35S]GTPγS binding Emax: 58%
  [35S]GTPγS binding LogEC50: -8.1
[21]
  GPI (µ) IC50: 490 nM
[9]
  GPI/LMMP IC50: 488 nM
Human δ opioid receptor [24]
  LogIC50: -8.8
Rat NK1 receptor [26]
  Ki: 7.3 nM
  LogIC50: -7.6
Rat NK1 receptor [13]
  Ki: 7.27 nM

## Y[dA]GFMW-{O‑Bzl(CF3)2} [Tyr-DAla-Gly-Phe-Met-Trp-O-Bzl(CF3)2 (NP38)]
[33]
  GPI/LMMP µ-agonist IC50: 393 nM

— US8026218 (UNIVERSITY OF ARIZONA, dated 2011)
